Assays:
Conditions in all cases: protein: recombinant, label: 5'-FAM
[1] = target: T1, hRev1 330-833 polymerase core (human, UniProt Q9UBZ9 330-833); assay: fluorescence polarization; 100 mM KCl; Fluorescence polarization: 1 nM FAM-DNA, 100 mM KCl or LiCl; DNA annealed in 50 mM HEPES pH 7.5; full buffer as in cited ref 17, temperature not stated. Footprinting: 50 mM HEPES pH 7.5, 100 mM KCl, 10 uM protein, 30 uM ssDNA, room temperature
T1 sequence: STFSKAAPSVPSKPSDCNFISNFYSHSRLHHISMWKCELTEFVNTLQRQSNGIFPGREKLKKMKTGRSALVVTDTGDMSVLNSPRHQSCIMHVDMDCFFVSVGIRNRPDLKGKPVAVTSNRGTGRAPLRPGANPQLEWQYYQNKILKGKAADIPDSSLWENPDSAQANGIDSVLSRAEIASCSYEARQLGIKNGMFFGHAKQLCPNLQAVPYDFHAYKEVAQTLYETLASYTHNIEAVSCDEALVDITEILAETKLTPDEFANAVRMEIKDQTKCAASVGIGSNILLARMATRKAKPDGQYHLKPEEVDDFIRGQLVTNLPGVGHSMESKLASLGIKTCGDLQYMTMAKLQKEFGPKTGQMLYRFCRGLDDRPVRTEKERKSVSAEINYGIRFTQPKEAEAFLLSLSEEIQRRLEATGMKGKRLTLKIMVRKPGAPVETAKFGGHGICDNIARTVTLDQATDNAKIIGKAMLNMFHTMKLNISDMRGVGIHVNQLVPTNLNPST

[2] = target: T2, hRev1 full-length (human, UniProt Q9UBZ9 1-1251); assay: as above
T2 sequence: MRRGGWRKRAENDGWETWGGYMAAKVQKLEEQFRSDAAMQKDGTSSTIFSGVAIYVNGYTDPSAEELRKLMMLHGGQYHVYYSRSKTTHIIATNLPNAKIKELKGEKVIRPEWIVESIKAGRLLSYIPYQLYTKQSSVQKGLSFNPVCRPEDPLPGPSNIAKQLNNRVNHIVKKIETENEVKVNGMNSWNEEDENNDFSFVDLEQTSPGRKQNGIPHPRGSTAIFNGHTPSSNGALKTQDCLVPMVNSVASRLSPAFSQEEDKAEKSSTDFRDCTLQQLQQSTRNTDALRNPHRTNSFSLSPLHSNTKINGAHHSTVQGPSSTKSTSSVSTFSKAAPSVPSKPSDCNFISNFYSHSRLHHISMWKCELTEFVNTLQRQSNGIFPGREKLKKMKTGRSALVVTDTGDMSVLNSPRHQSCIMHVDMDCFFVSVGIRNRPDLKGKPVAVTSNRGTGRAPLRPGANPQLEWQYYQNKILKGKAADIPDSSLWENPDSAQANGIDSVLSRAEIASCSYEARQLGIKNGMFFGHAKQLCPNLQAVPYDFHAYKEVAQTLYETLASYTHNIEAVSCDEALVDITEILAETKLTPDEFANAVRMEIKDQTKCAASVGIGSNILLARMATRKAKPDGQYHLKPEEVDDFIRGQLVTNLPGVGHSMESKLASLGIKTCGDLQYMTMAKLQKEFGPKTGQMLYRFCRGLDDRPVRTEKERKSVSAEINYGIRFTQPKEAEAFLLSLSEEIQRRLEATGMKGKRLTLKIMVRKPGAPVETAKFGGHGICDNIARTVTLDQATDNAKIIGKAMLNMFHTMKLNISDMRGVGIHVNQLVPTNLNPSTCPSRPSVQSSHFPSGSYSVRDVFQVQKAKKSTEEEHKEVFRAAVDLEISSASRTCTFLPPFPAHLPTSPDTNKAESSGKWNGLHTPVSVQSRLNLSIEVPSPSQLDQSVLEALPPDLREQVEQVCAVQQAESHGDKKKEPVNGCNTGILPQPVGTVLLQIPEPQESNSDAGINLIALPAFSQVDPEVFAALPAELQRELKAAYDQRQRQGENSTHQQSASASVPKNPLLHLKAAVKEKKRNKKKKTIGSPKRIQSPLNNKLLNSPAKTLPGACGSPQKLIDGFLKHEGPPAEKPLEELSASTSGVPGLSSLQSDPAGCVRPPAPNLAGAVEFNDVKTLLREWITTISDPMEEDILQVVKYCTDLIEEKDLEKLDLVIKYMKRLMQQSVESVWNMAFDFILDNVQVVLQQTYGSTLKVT

[3] = target: T3, hRev1 330-833 E466K (human, UniProt Q9UBZ9 330-833, E466K); assay: fluorescence polarization; 100 mM KCl?; Fluorescence polarization: 1 nM FAM-DNA, 100 mM KCl or LiCl; DNA annealed in 50 mM HEPES pH 7.5; full buffer as in cited ref 17, temperature not stated. Footprinting: 50 mM HEPES pH 7.5, 100 mM KCl, 10 uM protein, 30 uM ssDNA, room temperature
T3 sequence: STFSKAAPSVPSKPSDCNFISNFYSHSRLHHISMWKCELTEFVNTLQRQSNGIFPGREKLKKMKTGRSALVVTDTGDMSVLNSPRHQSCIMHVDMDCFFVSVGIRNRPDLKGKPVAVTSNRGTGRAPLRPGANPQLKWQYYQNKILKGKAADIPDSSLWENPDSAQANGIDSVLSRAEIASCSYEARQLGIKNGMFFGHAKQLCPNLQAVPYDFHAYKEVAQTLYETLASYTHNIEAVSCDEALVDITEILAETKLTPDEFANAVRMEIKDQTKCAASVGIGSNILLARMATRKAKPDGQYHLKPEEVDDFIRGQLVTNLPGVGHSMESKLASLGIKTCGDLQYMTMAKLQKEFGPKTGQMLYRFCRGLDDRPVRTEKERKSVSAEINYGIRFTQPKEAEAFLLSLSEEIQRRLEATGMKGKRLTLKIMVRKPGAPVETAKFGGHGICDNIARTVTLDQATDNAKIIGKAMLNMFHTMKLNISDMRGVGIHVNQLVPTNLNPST

[4] = parallel G4 (1:2:1 loops) in K+

## AGCGTGCGTAGCGTGCGTTATGAGATGAT (ssDNA) [Non-G4 Myc control ss]
[1]
  Kd: 910 ± 120 nM
[2]
  Kd: 110 ± 20 nM
[3]
  Kd: 1300 ± 300 nM

## AGGGTGGGTAGGGTGGGTTATGAGATGAT (structured_DNA) [Myc 14/23 ss G4]
[1]; [4]
  Kd: 37 ± 7 nM
[2]; [4]
  Kd: 5 ± 1 nM
[3]; [4]
  Kd: 43 ± 16 nM
